The results in this text go back to patent US20240392036A1 (UNIVERSITEIT GENT, published 2024).

The target of test [1] is T1, porcine kidney aminopeptidase N (APN), purified (Sigma) (porcine (Sus scrofa), UniProt P15145 33-963, biotinylated (1:3 ratio) when used as ligand in BLI).
T1 construct: Used coated in ELISA and biotinylated on SAX biosensors in BLI; also called purified kidney APN; porcine APN
T1 sequence: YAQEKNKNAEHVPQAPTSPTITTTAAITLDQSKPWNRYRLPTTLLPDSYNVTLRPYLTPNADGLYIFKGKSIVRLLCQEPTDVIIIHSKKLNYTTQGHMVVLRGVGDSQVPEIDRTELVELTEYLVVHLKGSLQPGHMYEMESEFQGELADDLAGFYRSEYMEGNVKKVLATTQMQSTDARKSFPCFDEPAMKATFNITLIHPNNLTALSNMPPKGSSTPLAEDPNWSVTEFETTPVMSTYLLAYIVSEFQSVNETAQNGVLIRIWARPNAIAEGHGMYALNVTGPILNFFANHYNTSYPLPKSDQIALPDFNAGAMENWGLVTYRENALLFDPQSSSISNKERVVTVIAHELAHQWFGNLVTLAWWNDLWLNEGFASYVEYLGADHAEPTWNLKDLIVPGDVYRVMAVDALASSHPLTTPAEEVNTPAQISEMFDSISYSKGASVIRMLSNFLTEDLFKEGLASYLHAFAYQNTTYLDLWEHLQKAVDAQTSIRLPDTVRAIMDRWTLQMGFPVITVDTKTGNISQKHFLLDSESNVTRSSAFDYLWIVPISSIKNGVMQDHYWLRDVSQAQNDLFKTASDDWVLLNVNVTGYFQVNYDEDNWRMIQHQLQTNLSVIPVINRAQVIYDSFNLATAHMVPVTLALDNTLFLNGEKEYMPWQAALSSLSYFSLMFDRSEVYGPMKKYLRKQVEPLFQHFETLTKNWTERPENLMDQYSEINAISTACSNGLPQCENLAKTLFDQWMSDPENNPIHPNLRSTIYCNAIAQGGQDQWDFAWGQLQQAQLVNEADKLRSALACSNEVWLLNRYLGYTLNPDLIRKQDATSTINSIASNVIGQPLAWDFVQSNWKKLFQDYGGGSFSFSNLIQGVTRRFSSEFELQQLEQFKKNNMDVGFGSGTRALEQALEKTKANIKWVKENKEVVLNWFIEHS
The test can be described thus: BLI (Octet RED96), biotinylated porcine APN on SAX biosensor, mAb at 100 nM, 1:1 local full fit.

Test [2] has as its target T1, porcine kidney aminopeptidase N (APN), …. The test can be described thus: bio-layer interferometry, biotinylated porcine APN on SAX biosensor, series of analyte concentrations (not labelled on the sheet).

B1: α-APN-mIgG1 (clone IMM013), APN-specific mouse IgG1 monoclonal antibody (antibody)
heavy: QAYLQQSGAELVRSGASVKMSCKASGYTFTSYNMHWVKQTPGQGLEWIGYIYPGNGDINYNQKFKGKATLTADTSSNTAYMQISSLTSEDSAVYFCARGGVFDYWGQGTTLIVSSAKTTPPSVYPLAPGSAAQTNSMVTLGCLVKGYFPEPVTVTWNSGSLSSGVHTFPAVLQSDLYTLSSSVTVPSSTWPSETVTCNVAHPASSTKVDKKIVPRDCGCKPCICTVPEVSSVFIFPPKPKDVLTITLTPKVTCVVVDISKDDPEVQFSWFVDDVEVHTAQTQPREEQFNSTFRSVSELPIMHQDWLNGKEFKCRVNSAAFPAPIEKTISKTKGRPKAPQVYTIPPPKEQMAKDKVSLTCMITDFFPEDITVEWQWNGQPAENYKNTQPIMDTDGSYFVYSKLNVQKSNWEAGNTFTCSVLHEGLHNHHTEKSLSHSPGK
light: QIVLTQSPAIVSASPGEKVTITCSGSSSVNYMHWFQQKPGTSPKLWIYSTSNLASGVPGRFSGSGSGTSYSLTISRMEAEDAATYYCQQRTSYPYTFGGGTKLEIKRADAAPTVSIFPPSSEQLTSGGASVVCFLNNFYPKDINVKWKIDGSERQNGVLNSWTDQDSKDSTYSMSSTLTLTKDEYERHNSYTCEATHKTSTSPIVKSFNRNEC
notes: Purified from hybridoma supernatant by protein G; also called IMMO13; α-APN mAb (clone IMM013)
B1: the Kd in test [1] is 1.6 nM; in test [2], 1.4 nM.

B2: α-APN-mIgG1-FedF fusion construct (clone IMM013 mouse IgG1 with FedF15-165 fused to the heavy chain) (other)
heavy: QAYLQQSGAELVRSGASVKMSCKASGYTFTSYNMHWVKQTPGQGLEWIGYIYPGNGDINYNQKFKGKATLTADTSSNTAYMQISSLTSEDSAVYFCARGGVFDYWGQGTTLIVSSAKTTPPSVYPLAPGSAAQTNSMVTLGCLVKGYFPEPVTVTWNSGSLSSGVHTFPAVLQSDLYTLSSSVTVPSSTWPSETVTCNVAHPASSTKVDKKIVPRDCGCKPCICTVPEVSSVFIFPPKPKDVLTITLTPKVTCVVVDISKDDPEVQFSWFVDDVEVHTAQTQPREEQFNSTFRSVSELPIMHQDWLNGKEFKCRVNSAAFPAPIEKTISKTKGRPKAPQVYTIPPPKEQMAKDKVSLTCMITDFFPEDITVEWQWNGQPAENYKNTQPIMDTDGSYFVYSKLNVQKSNWEAGNTFTCSVLHEGLHNHHTEKSLSHSPGKGGGGSGGGGSGGGGSNSSASSAQVTGTLLGTGKTNTTQMPALYTWQHQIYNVNFIPSSSGTLTCQAGTILVWKNGRETQYALECRVSIHHSSGSINESQWGQQSQVGFGTACGNKKCRFTGFEISLRIPPNAQTYPLSSGDLKGSFSLTNKEVNWSASIYVPAIAK
light: B1 light
notes: also called FedF-linked α-APN-mIgG1; aAPN-mIgG1-FedF
B2: the dissociation constant Kd in test [2] came out at 5.1 nM.
